Assay results as given in the supplement of paper PMC10126150.
± gives the standard deviation of the averaged measurements.

These sequences were tested on ATP (assay: switch fluorescence ratio, 500 uM ATP over buffer (Cy3 cluster intensity, sum of 5 cycles each) (fold (ratio)); higher = stronger signal-on switching upon ATP binding; sequences stand for … in TCGTCGGCAGCGTCAGATGTGTATAAGAGACAGTTTTTTTTTTTTTTTTTTTTTTTTT…TC). Settings: aptamer strand: ATP DNA aptamer (quencher-CACCTGGGGGAGTATTGCGGAGGAAGG + anchor), 100 nM annealed; ATP concentration: 500 uM.
Outline: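 Cy3-labelled switching-strand clusters on a modified Illumina MiSeq flow-cell were annealed to 100 nM quencher-labelled ATP aptamer and imaged first in selection buffer, then after 15 min with 500 uM ATP at 22 °C. NaOH stripping and re-annealing separated each of five buffer/ATP cycles, and clusters outside 100-1000 RFU were excluded. The fluorescence ratio sums target-cycle Cy3 intensity over buffer-cycle Cy3 intensity per cluster and averages it per switch-domain sequence.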
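Further: ATP exposure 15 min at 22 °C before imaging.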

Sequence | switch fluorescence ratio
TAAGGGCGGC | 0.995 ± 0.043
TTAATGCAGG | 1.006 ± 0.006
GCTTCAGGAG | 1.27 ± 0.024
GGAATGGGGA | 1 ± 0.037
GGGTAAAAAA | 1.02 ± 0.045
GAATGCGGGC | 0.99 ± 0.017
GGAGATAGTT | 0.9806 ± 0.0057
AAGGCGACGT | 0.994 ± 0.015
CTGCTCACAC | 1.22 ± 0.046
TTAATTCCAG | 1.01 ± 0.029
TTGGGCGGAA | 1.03 ± 0.071
CCAGGCGTAT | 1.032 ± 0.0023
TTCTTCTGGC | 1.017 ± 0.0073
TGAGGGCATT | 1 ± 0.012
TAGAAATACT | 1.54 ± 0.2
TGTATGGGGA | 0.9997 ± 0.004
CAGGGGGATT | 1.03 ± 0.042
TTATATCCGT | 1.01 ± 0.031
AGGTGCCGTG | 1.02 ± 0.083
GAAGCGCCGG | 1.01 ± 0.028
TATTTGCGCA | 1.06 ± 0.099
AATTATTTTG | 1 ± 0.045
TTCATCTGCA | 2.19 ± 1.5
TTTTTGGTCT | 0.997 ± 0.027
GGGTATTGCG | 0.977 ± 0.083

Sequence | switch fluorescence ratio
ATGTGGATTC | 1.02 ± 0.036
TGCCAGAAGG | 1.021 ± 0.0041
TCAGCGGGGG | 1.11 ± 0.16
AGGGTTATCG | 1.02 ± 0.018
CGGCTCCTCA | 1.08 ± 0.045
ACAGTATGGG | 1.03 ± 0.021
TTTTTTTCT | 1.01 ± 0.046
TGGTCCCTTG | 1.12 ± 0.16
TAAGGTTGGT | 0.987 ± 0.028
CGATGGGGTG | 0.998 ± 0.025
ACGTTCTGTT | 1.02 ± 0.023
TAGGGTAAAT | 0.985 ± 0.012
TCATTCAACT | 1 ± 0.013
AAGGGGTGCA | 0.968 ± 0.058
ATGAATGTTT | 1 ± 0.026
AATTGGGGGG | 0.998 ± 0.04
ATTAATCGCT | 0.9931 ± 0.0042
ATTTTTGGTT | 1.01 ± 0.042
TTCATTATTT | 1 ± 0.024
TCAATGGTTT | 1.12 ± 0.21
CACTTGTGAC | 1 ± 0.016
TGCTAGGGAT | 1.01 ± 0.029
TGGCGGGGCT | 0.9972 ± 0.0064
TGGGTTAAGT | 1 ± 0.021
TAGGGGGTTC | 1.01 ± 0.027

Sequence | switch fluorescence ratio
CCGGTTACGT | 1.17 ± 0.2
GGGGAACTGG | 1.01 ± 0.023
AAATTCATAG | 1.019 ± 0.0033
GAAGGCATTC | 1.06 ± 0.031
CATGTTTAGG | 0.986 ± 0.017
TCTGTTTGTA | 0.9816 ± 0.0075
TCGATGCGTG | 1.01 ± 0.011
GAGGATGGCA | 0.9807 ± 0.0061
TGAATGGGCA | 0.973 ± 0.024
TTATGGTAAC | 1.04 ± 0.018
TTGGGCTACG | 1.002 ± 0.0048
GACCCTATTC | 1.09 ± 0.05
TGGGTGATAG | 0.99 ± 0.035
CATTAAAGTA | 1.1 ± 0.021
GAGAGGTTCG | 0.962 ± 0.012
ATTCGAATCG | 1.05 ± 0.12
GGTTTTTCGA | 0.983 ± 0.034
AAATGGAATG | 0.983 ± 0.046
TGGTTGAGGT | 0.963 ± 0.028
TGGAACGGAG | 0.98 ± 0.021
CATTGAGCGG | 1 ± 0.018
TGGGTATTCT | 0.945 ± 0.024
AGATCGCTTG | 0.975 ± 0.0019
AAGTGTTGGC | 1.014 ± 0.01
GTGTATCGTC | 0.9819 ± 0.0014

Sequence | switch fluorescence ratio
TGATTGGGTA | 1 ± 0.019
TATAAATGGG | 1 ± 0.0042
TTAATTAACC | 1.13 ± 0.098
TTTTCAGCAA | 2.59 ± 1
TACTAATGTT | 1.03 ± 0.044
TGGGGGACCC | 1 ± 0.061
TAGGCGTGCT | 0.987 ± 0.013
CTGAGAGACA | 0.991 ± 0.04
TGCGCGAAAT | 0.995 ± 0.0021
ACAGTGCCGG | 1.02 ± 0.055
CTGGAGGGAC | 1.06 ± 0.026
GGCGGTGTGG | 0.981 ± 0.023
TACCACGTTG | 1 ± 0.009
GTCGGGAGTG | 0.986 ± 0.065
TGTTGACTGA | 1.02 ± 0.023
AAGTCATTTG | 1.017 ± 0.0088
TTTCGGTAGT | 0.995 ± 0.026
TGGAATTGCC | 1.024 ± 0.0089
TTTTTTCCTC | 1.1 ± 0.2
CAGTTTGTTA | 0.994 ± 0.036
CGGAGGAGTA | 1.03 ± 0.03
GTCGATTTTT | 0.992 ± 0.044
TTACTCGGGC | 0.999 ± 0.019
TTCTAGGTAG | 0.991 ± 0.05
TTTGAGGTCC | 1 ± 0.07
